The data set concerns the target interferon-gamma (IFNγ) (human, UniProt P01579 24-161). Kind of data set: SPR; method inferred; no citation given with the value; SPR (BIAcore T200, biotinylated aptamer on SA chip), 1x PBS (1 mM KH2PO4, 3 mM Na2HPO4) with 205 mM NaCl final, 0.05% NP-40, pH 7.4, 25 °C; IFNγ 1.25-50 nM. The note with it: protein: recombinant; chain copies: 2. Background: In SPR one partner is held on a chip, and binding of the other changes the refractive index at the surface.

interferon-gamma (IFNγ), sequence (P01579 24-161): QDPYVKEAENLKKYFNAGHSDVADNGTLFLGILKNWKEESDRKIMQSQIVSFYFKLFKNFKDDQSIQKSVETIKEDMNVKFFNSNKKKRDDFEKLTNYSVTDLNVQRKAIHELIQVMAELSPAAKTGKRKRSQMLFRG

What is called Kd is the equilibrium constant for the complex coming apart. For the molecule TCCACTCGGGTCATTTAATAATGTAGGTATGGGCTAGGCAGCTAGTGGA (structured_DNA) [aptamer 49A], the Kd was determined as 7.2 nM.

The values above are taken from publication PMC4686876, “Architecture of high-affinity unnatural-base DNA aptamers toward pharmaceutical applications”.
